The target of assay [1] is T1, peptide C6 of the ETB-R Pep-scan membrane (human).
T1 construct: Residues are inferred as for C5, from the one-residue offset and C11 = 71-82
T1 peptide: LAPAEVPKGDRT
The experiment in a line: Pep-scan peptide membrane, 1 µg/ml antibody, chemiluminescent detection.

Assay [2] has as its target T2, peptide C10 of the ETB-R Pep-scan membrane (human).
T2 construct: Residues are inferred as for C5, from the one-residue offset and C11 = 71-82
T2 peptide: EVPKGDRTAGSP
The assay is described as above.

Assay [3] deals with T3, peptide C9 of the ETB-R Pep-scan membrane (human).
T3 construct: Residues are inferred as for C5, from the one-residue offset and C11 = 71-82
T3 peptide: AEVPKGDRTAGS
Described as above.

The target of assay [4] is T4, peptide C7 of the ETB-R Pep-scan membrane (human).
T4 construct: Residues are inferred as for C5, from the one-residue offset and C11 = 71-82
T4 peptide: APAEVPKGDRTA
The assay is described as above.

In assay [5] the target is T5, peptide C8 of the ETB-R Pep-scan membrane (human).
T5 construct: Residues are inferred as for C5, from the one-residue offset and C11 = 71-82
T5 peptide: PAEVPKGDRTAG
The description is as above.

Assay [6] addresses T6, peptide C5 of the ETB-R Pep-scan membrane (human).
T6 construct: The peptides are 12-mers offset by one residue, C11 is stated to be 71-82, and C5-C10 share 70-76
T6 peptide: SLAPAEVPKGDR
Described as above.

In assay [7] the target is T7, human endothelin receptor sub-type B (human, UniProt P24530 27-442).
T7 construct: no signal peptide limits are stated; also called ETB-R; ETBR
T7 sequence: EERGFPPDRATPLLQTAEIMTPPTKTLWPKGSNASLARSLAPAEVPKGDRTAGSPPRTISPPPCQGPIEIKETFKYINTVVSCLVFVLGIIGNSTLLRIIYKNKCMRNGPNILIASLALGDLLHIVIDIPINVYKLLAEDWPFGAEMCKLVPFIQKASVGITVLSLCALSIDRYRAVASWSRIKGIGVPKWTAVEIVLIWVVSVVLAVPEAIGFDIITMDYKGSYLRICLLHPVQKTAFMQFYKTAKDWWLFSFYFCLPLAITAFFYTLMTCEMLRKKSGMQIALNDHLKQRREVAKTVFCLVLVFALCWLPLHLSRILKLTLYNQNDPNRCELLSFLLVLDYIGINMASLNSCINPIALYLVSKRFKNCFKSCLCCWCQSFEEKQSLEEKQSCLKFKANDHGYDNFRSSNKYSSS
The experiment in a line: flow cytometry on CHO-ETBR cells; apparent KD = concentration giving 50% of plateau MFI. In general terms: A flow cytometer gives signals particle by particle.

The target in assay [8] is T7, human endothelin receptor sub-type B. The experiment in a line: flow cytometry on CHO-ETBR cells pre-incubated 2 h at 37° C. with 300 nM endothelin 1 (receptor internalised).

Substitutions are numbered along the chain they refer to. Bounds are passed on as bounds.

B1: Rendomab-B49 (antibody, IgG1, V domains shown)
VH: QVQLQQPGAALVKPGASVKLSCKASGYTFISYWMLWVKQRPGRGLEWIGRIDPDSGGTKYNEKFKSKATLTVDKSSSTAYMQLSSLTSEDSAVYYCAREGDYAWFAYWGQGTLVPVSA
VL: DVLMTQTPLSLPVSLGDQASISCRSSQSIVHSNGNTYLEWYLQKPGQSPKLLIYKVSNRFSGVPDRFSGSGSGTDFTLKISRVEAEDLGVYYCFQGSHVPWTFGGGTKLEIK
notes: Murine monoclonal IgG1/kappa purified from ascites; also called hybridoma CNCM I-5084
For the molecule B1, the binding result in assay [1], in assay [2], in assay [3], in assay [4], in assay [5] and in assay [6] was “binds” each time.

B2: Rendomab-B41 (antibody, IgG1, V domains shown)
VH: QVQLQQPGAELVKPGASVKLSCKASGYTFTSYWMHWVKQRPGRGLEWIGRIDPDSGGTKYNEKFKSKATLTVDKPSNTANMQLSSLTSEDSAVYYCVREGWDAWFVYWGQGTLLTVSA
VL: DVLMTQTPLSLPVSLGDQASISCRSSQSIVHSNGNTYLEWYLQKPGQSPKLLIYKVFNRFSGVPDRFSGSGSGTDFTLKISRVEAEDLGVYYCFQGSHVPLTFGAGTKLELKR
notes: Murine monoclonal IgG1/kappa purified from ascites; also called hybridoma CNCM I-5104
Take B2: the Kd in assay [7] was around 1 nM. Also, the “drop of binding after pre-incubation of the cells with 300 nM endothelin 1” value in assay [8] is above 50%.

B3: Rendomab-B36 (antibody, IgG3, V domains shown)
VH: QVQLQQPGAELVKPGASVKLSCKASGYTFTSYWIHWVNQRPGRGLEWIGRIDPNSGGTKYNEKFKSKATLTVDKTSSTAYMQFSSLTSEDSAVYYCAREGEFAWFAYWGQGTLVTVSA
VL: B2 VL with S28N, N35Y, F57S, A105S, L111I
notes: Murine monoclonal IgG3/kappa purified from ascites; also called hybridoma CNCM I-5103
As to B3, the Kd in assay [7] was around 1 nM. Besides, the “drop of binding after pre-incubation of the cells with 300 nM endothelin 1” value in assay [8] was above 50%.

Source of the values: US20190185574A1 (COMMISSARIAT L NERGIE ATOMIQUE ET AUX NERGIES ALTERNATIVES, published 2019).
